Targets include 2TREQNRI2…2R; CDQVETQA2…2RLC; PE2LS2…2R; 2LS2…2RPG; …2SK2SPGQ; CNWVPE2LS2GSR2…2TSTSPTRC; REQNRI2…2RL; NWVPE2…2T2.
Holding throughout (experiment): peptide-array ELISA [Con't]
In assay [1] the target is VPE2LSCGSR2….
In assay [2] the target is DVV2….
Assay [3] has as its target CTSSTDI2RPHQI2NVCQA2TREQNRI2T2RPC.
In assay [4] the target is CI2RPHQI2…2….
Assay [5] concerns the target CGWY2ALSKQEG2RL2CQA2TREQNRI2T2RPC.
In assay [6] the target is 2LSCGSR2….
The target in assay [7] is DI2….
DI2…, sequence (peptide, as listed by the source): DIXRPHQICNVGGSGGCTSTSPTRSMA
The target of assay [8] is CQTAQM22SK2…2….
Assay [9] concerns the target C2T2RPGWY2…2….
Assay [10] concerns the target …22SK2CAPLRK2….
Assay [11] addresses CTSSTDI2RPHQI2NVCAPLRK2….
Assay [12] addresses …2….

“And” between values parts separate entries of the source, which are not always exact repeats. Equal values may be shown once.

With agonistic TNFR2 antibody MR2-1, the Raw luminescence data came to 164 with 2TREQNRI2…2R; 165 in [1]; 159 in assay [2]; 166 in assay [3]; 157 with CDQVETQA2…2RLC; 165 in assay [4]. The Raw luminescence data amounted to 162 with PE2LS2…2R; 158 in assay [5]; 157 in [6]; 166 in [7]; 162 with 2LS2…2RPG; 161 in assay [8]. The Raw luminescence data with …2SK2SPGQ was 163 and 156; in the assay with CNWVPE2LS2GSR2…2TSTSPTRC, 161; in assay [9], 161; in assay [10], 168; in assay [11], 158; with REQNRI2…2RL it was 161. The Raw luminescence data in assay [12] was 166 and 165; with NWVPE2…2T2, 168.

Values taken from patent US20250243290A1.
